Source: the supplement of paper PMC10567573

B1: GMCL1 (parent)
chain: FCYCAGSHKRKRSSGSFCYCHPDS

Variants of: B1
Experiment: protein stability index of a GFP-peptide fusion (GPS, HEK-293T) (PSI 1-6); higher = more stable
Details: c terminus: a fixed tail appended
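Note: lentivirally expressed fusions sorted by FACS into six bins by GFP to DsRed ratio, PSI derived from sequencing read proportions per bin multiplied by bin number.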

For FCYCAGSHGRKRSSGSFCYCHPDS [K9G], which protein stability index is on record?
The protein stability index was 1.57.

For FCYCAGSHFRKRSSGSFCYCHPDS [K9F], which protein stability index is on record?
Its protein stability index is 2.13.

For FCYCAGSHARKRSSGSFCYCHPDS [K9A], which protein stability index is on record?
Its protein stability index is 1.63.

Which protein stability index does the source give for FCYCAGSHHRKRSSGSFCYCHPDS [K9H] here?
The protein stability index was 1.86.

With FCYCAGSHIRKRSSGSFCYCHPDS [K9I] as the variant, how does the protein stability index read?
Its protein stability index is 1.94.

With FCYCAGSHERKRSSGSFCYCHPDS [K9E] as the variant, how does the protein stability index read?
The protein stability index was 2.14.

With FCYCAGSHRRKRSSGSFCYCHPDS [K9R] as the variant, how does the protein stability index read?
The protein stability index was 1.61.

For FCYCAGSHMRKRSSGSFCYCHPDS [K9M], which protein stability index is on record?
Its protein stability index is 1.77.

For FCYCAGSHYRKRSSGSFCYCHPDS [K9Y], which protein stability index is on record?
Its protein stability index is 2.8.

Which protein stability index does the source give for FCYCAGSHDRKRSSGSFCYCHPDS [K9D] here?
Its protein stability index is 1.99.

With FCYCAGSHKRKRSSYSFCYCHPDS [G15Y] as the variant, how does the protein stability index read?
Its protein stability index is 2.56.

With FCYCAGSHKRKRSSKSFCYCHPDS [G15K] as the variant, how does the protein stability index read?
The protein stability index was 1.72.

Which protein stability index does the source give for FCYCAGSHKRKRSSESFCYCHPDS [G15E] here?
The protein stability index was 2.67.

With FCYCAGSHKRKRSSRSFCYCHPDS [G15R] as the variant, how does the protein stability index read?
Its protein stability index is 1.62.

Which protein stability index does the source give for FCYCAGSHKRKRSSHSFCYCHPDS [G15H] here?
Its protein stability index is 2.07.

Which protein stability index does the source give for FCYCAGSHKRKRSSASFCYCHPDS [G15A] here?
Its protein stability index is 1.61.

Which protein stability index does the source give for FCYCAGSHKRKRSSLSFCYCHPDS [G15L] here?
The protein stability index was 3.16.

With FCYCAGSHKRKRSSDSFCYCHPDS [G15D] as the variant, how does the protein stability index read?
Its protein stability index is 2.25.

For FCYCAGSHKRKRSSGSFCYCHPDK [S24K], which protein stability index is on record?
Its protein stability index is 2.44.

With FCYCAGSHKRKRSSGSFCYCHPDW [S24W] as the variant, how does the protein stability index read?
The protein stability index was 1.38.

With FCYCAGSHKRKRSSGSFCYCHPDH [S24H] as the variant, how does the protein stability index read?
Its protein stability index is 2.09.

Which protein stability index does the source give for FCYCAGSHKRKRSSGSFCYCHPDI [S24I] here?
Its protein stability index is 2.03.

Which protein stability index does the source give for FCYCAGSHKRKRSSGSFCYCHPDR [S24R] here?
The protein stability index was 2.28.

For FCYCAGSHKRKRSSGSFCYCHPDA [S24A], which protein stability index is on record?
Its protein stability index is 1.94.

With FCYCAGSHKGKRSSGSFCYCHPDS [R10G] as the variant, how does the protein stability index read?
Its protein stability index is 2.27.

For FCYCAGSHKDKRSSGSFCYCHPDS [R10D], which protein stability index is on record?
The protein stability index was 2.02.

For FCYCAGSHKMKRSSGSFCYCHPDS [R10M], which protein stability index is on record?
The protein stability index was 1.9.

With FCYCAGSHKVKRSSGSFCYCHPDS [R10V] as the variant, how does the protein stability index read?
Its protein stability index is 1.81.

With FCYCAGSHKIKRSSGSFCYCHPDS [R10I] as the variant, how does the protein stability index read?
The protein stability index was 2.32.

With FCYCAGSHKQKRSSGSFCYCHPDS [R10Q] as the variant, how does the protein stability index read?
Its protein stability index is 2.29.

For FCYCAGSHKFKRSSGSFCYCHPDS [R10F], which protein stability index is on record?
The protein stability index was 1.4.

For FCYCRGSHKRKRSSGSFCYCHPDS [A5R], which protein stability index is on record?
The protein stability index was 1.85.

For FCYCDGSHKRKRSSGSFCYCHPDS [A5D], which protein stability index is on record?
Its protein stability index is 2.38.

Which protein stability index does the source give for FCYCYGSHKRKRSSGSFCYCHPDS [A5Y] here?
Its protein stability index is 1.89.

Which protein stability index does the source give for FCYCWGSHKRKRSSGSFCYCHPDS [A5W] here?
The protein stability index was 2.26.

With FCYCMGSHKRKRSSGSFCYCHPDS [A5M] as the variant, how does the protein stability index read?
The protein stability index was 1.88.

Which protein stability index does the source give for FCYCKGSHKRKRSSGSFCYCHPDS [A5K] here?
The protein stability index was 2.53.

Which protein stability index does the source give for FCYCGGSHKRKRSSGSFCYCHPDS [A5G] here?
Its protein stability index is 1.5.

For FCYCPGSHKRKRSSGSFCYCHPDS [A5P], which protein stability index is on record?
Its protein stability index is 2.58.

With FCYCAGTHKRKRSSGSFCYCHPDS [S7T] as the variant, how does the protein stability index read?
The protein stability index was 2.98.

With FCYCAGKHKRKRSSGSFCYCHPDS [S7K] as the variant, how does the protein stability index read?
The protein stability index was 2.29.

Which protein stability index does the source give for FCYCAGHHKRKRSSGSFCYCHPDS [S7H] here?
Its protein stability index is 1.59.

For FCYCAGDHKRKRSSGSFCYCHPDS [S7D], which protein stability index is on record?
Its protein stability index is 1.55.

With FCYCAGCHKRKRSSGSFCYCHPDS [S7C] as the variant, how does the protein stability index read?
The protein stability index was 2.1.

With FCYCAGYHKRKRSSGSFCYCHPDS [S7Y] as the variant, how does the protein stability index read?
Its protein stability index is 1.59.

With FCYCAGNHKRKRSSGSFCYCHPDS [S7N] as the variant, how does the protein stability index read?
Its protein stability index is 2.16.

With FCGCAGSHKRKRSSGSFCYCHPDS [Y3G] as the variant, how does the protein stability index read?
Its protein stability index is 1.7.

With FCKCAGSHKRKRSSGSFCYCHPDS [Y3K] as the variant, how does the protein stability index read?
Its protein stability index is 2.82.

For FCNCAGSHKRKRSSGSFCYCHPDS [Y3N], which protein stability index is on record?
The protein stability index was 2.67.

With FCPCAGSHKRKRSSGSFCYCHPDS [Y3P] as the variant, how does the protein stability index read?
The protein stability index was 1.76.

Which protein stability index does the source give for FCQCAGSHKRKRSSGSFCYCHPDS [Y3Q] here?
Its protein stability index is 2.89.

With FCACAGSHKRKRSSGSFCYCHPDS [Y3A] as the variant, how does the protein stability index read?
The protein stability index was 2.37.

Which protein stability index does the source give for FCLCAGSHKRKRSSGSFCYCHPDS [Y3L] here?
The protein stability index was 2.96.

For FCICAGSHKRKRSSGSFCYCHPDS [Y3I], which protein stability index is on record?
The protein stability index was 2.46.

Which protein stability index does the source give for FRYCAGSHKRKRSSGSFCYCHPDS [C2R] here?
Its protein stability index is 3.48.

Which protein stability index does the source give for FLYCAGSHKRKRSSGSFCYCHPDS [C2L] here?
Its protein stability index is 1.79.

For FYYCAGSHKRKRSSGSFCYCHPDS [C2Y], which protein stability index is on record?
The protein stability index was 2.03.

For FSYCAGSHKRKRSSGSFCYCHPDS [C2S], which protein stability index is on record?
Its protein stability index is 2.25.

Which protein stability index does the source give for FEYCAGSHKRKRSSGSFCYCHPDS [C2E] here?
The protein stability index was 2.05.

For FAYCAGSHKRKRSSGSFCYCHPDS [C2A], which protein stability index is on record?
The protein stability index was 2.76.

With FCYCAGSHKRKRSSGSFCYCHPWS [D23W] as the variant, how does the protein stability index read?
The protein stability index was 2.16.

With FCYCAGSHKRKRSSGSFCYCHPNS [D23N] as the variant, how does the protein stability index read?
The protein stability index was 1.92.

Which protein stability index does the source give for FCYCAGSHKRKRSSGSFCYCHPVS [D23V] here?
The protein stability index was 1.44.

With FCYCAGSHKRKRSSGSFCYCHPLS [D23L] as the variant, how does the protein stability index read?
The protein stability index was 1.98.

With FCYCAGSHKRKRSSGSFCYCHPAS [D23A] as the variant, how does the protein stability index read?
Its protein stability index is 1.35.

For FCYCAGSHKRKRSSGSFCYCHPCS [D23C], which protein stability index is on record?
Its protein stability index is 1.28.

For FCYCAGSHKRKRNSGSFCYCHPDS [S13N], which protein stability index is on record?
The protein stability index was 1.64.

For FCYCAGSHKRKRGSGSFCYCHPDS [S13G], which protein stability index is on record?
Its protein stability index is 1.56.

For FCYCAGSHKRKRYSGSFCYCHPDS [S13Y], which protein stability index is on record?
The protein stability index was 1.7.

With FCYCAGSHKRKRFSGSFCYCHPDS [S13F] as the variant, how does the protein stability index read?
The protein stability index was 2.24.

Which protein stability index does the source give for FCYCAGSHKRKRWSGSFCYCHPDS [S13W] here?
Its protein stability index is 1.84.

With FCYCAGSHKRKRLSGSFCYCHPDS [S13L] as the variant, how does the protein stability index read?
Its protein stability index is 2.5.

With FCYCAGSHKRKRASGSFCYCHPDS [S13A] as the variant, how does the protein stability index read?
The protein stability index was 1.95.

With FCYCAGSHKRKRHSGSFCYCHPDS [S13H] as the variant, how does the protein stability index read?
Its protein stability index is 2.21.

Which protein stability index does the source give for FCYCAGSHKRKRSSGSFCYCWPDS [H21W] here?
The protein stability index was 1.63.

With FCYCAGSHKRKRSSGSFCYCVPDS [H21V] as the variant, how does the protein stability index read?
The protein stability index was 2.51.

For FCYCAGSHKRKRSSGSFCYCAPDS [H21A], which protein stability index is on record?
The protein stability index was 2.41.

Which protein stability index does the source give for FCYCAGSHKRKRSSGSFCYCGPDS [H21G] here?
Its protein stability index is 2.55.

For FCYCAGSHKRKRSSGSFCYCCPDS [H21C], which protein stability index is on record?
The protein stability index was 1.11.

With FCYCAGSHKRKRSSGSFCYCLPDS [H21L] as the variant, how does the protein stability index read?
Its protein stability index is 2.88.

For FCYCAGSHKRKRSSGSFCYCDPDS [H21D], which protein stability index is on record?
The protein stability index was 2.47.

For FCYCAGSHKRKRSSGSFCYCKPDS [H21K], which protein stability index is on record?
Its protein stability index is 3.17.

With FCYCAGSHKRKRSSGSFCYCNPDS [H21N] as the variant, how does the protein stability index read?
The protein stability index was 2.43.

With FCYCAGSHKRKRSSGSFCYCFPDS [H21F] as the variant, how does the protein stability index read?
The protein stability index was 2.51.

Which protein stability index does the source give for FCYCAGSHKRKRSSGSFCYCRPDS [H21R] here?
Its protein stability index is 2.54.

For FCYCAGSHKRKRSSGSMCYCHPDS [F17M], which protein stability index is on record?
Its protein stability index is 2.15.

For FCYCAGSHKRKRSSGSPCYCHPDS [F17P], which protein stability index is on record?
Its protein stability index is 2.98.

For FCYCAGSHKRKRSSGSICYCHPDS [F17I], which protein stability index is on record?
The protein stability index was 2.05.

With FCYCAGSHKRKRSSGSNCYCHPDS [F17N] as the variant, how does the protein stability index read?
Its protein stability index is 2.06.

Which protein stability index does the source give for FCYCAGSHKRKRSSGSLCYCHPDS [F17L] here?
Its protein stability index is 2.3.

For FCYCAGSHKRKRSSGSQCYCHPDS [F17Q], which protein stability index is on record?
Its protein stability index is 2.61.

Which protein stability index does the source give for FCYCAGSHKRKRSSGSACYCHPDS [F17A] here?
The protein stability index was 2.11.

For FCYCAGSHKRKRSSGSYCYCHPDS [F17Y], which protein stability index is on record?
Its protein stability index is 2.25.

Which protein stability index does the source give for FCYCAGSHKRKRSSGSGCYCHPDS [F17G] here?
The protein stability index was 2.19.
